In publication PMC9482650, “Quantitative fragmentomics allow affinity mapping of interactomes” (Nature Communications, 2022):

T1: MPP7, Q5T2T1
T1 sequence (Q5T2T1 134-230, limits assumed, looked up): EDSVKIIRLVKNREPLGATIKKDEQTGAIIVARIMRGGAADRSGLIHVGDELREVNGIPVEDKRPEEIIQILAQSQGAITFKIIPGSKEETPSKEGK

T2: HTRA3, P83110
T2 sequence (P83110 354-453, limits assumed, looked up): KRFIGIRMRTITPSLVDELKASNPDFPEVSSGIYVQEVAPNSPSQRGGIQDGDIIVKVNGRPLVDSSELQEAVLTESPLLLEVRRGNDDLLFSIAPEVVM

T3: MPDZ_10, O75970
T3 sequence (O75970 1624-1722, limits assumed, looked up): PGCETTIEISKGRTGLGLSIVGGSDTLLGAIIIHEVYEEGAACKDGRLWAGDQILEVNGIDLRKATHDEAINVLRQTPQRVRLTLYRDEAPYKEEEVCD

T4: PDZD7_3, Q9H5P4
T4 sequence (Q9H5P4 857-944, limits assumed, looked up): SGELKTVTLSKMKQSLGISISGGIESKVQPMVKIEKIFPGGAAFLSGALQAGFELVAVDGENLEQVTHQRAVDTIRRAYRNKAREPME

T5: SYNJ2BP, P57105
T5 sequence (P57105 8-110, limits assumed, looked up): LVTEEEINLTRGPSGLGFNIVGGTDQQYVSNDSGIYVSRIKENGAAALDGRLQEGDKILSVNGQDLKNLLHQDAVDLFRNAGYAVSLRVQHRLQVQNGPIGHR

T6: GRIP1_7, Q9Y3R0
T6 sequence (Q9Y3R0 999-1096, limits assumed, looked up): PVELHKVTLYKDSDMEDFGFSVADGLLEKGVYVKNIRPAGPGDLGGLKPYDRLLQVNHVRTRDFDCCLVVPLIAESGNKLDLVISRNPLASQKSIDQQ

T7: APBA1_1, Q02410
T7 sequence (Q02410 651-752, limits assumed, looked up): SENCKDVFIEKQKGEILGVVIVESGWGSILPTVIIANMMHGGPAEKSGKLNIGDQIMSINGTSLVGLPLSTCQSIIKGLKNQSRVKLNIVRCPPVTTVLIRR

T8: TX1BP3, O14907
T8 sequence (O14907 10-122, limits assumed, looked up): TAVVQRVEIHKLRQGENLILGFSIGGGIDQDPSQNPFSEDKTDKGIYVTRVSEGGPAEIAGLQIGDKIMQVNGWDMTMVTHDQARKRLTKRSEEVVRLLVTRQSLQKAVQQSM

T9: APBA1_2, Q02410
T9 sequence (Q02410 742-832, limits assumed, looked up): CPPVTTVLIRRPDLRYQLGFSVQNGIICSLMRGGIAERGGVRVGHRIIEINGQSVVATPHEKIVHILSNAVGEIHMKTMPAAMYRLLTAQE

T10: GRIP1_3, Q9Y3R0
T10 sequence (Q9Y3R0 247-346, limits assumed, looked up): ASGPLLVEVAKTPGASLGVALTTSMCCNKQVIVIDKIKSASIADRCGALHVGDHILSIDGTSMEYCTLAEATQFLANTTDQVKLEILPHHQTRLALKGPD

T11: LNX2_3, Q8N448
T11 sequence (Q8N448 463-564, limits assumed, looked up): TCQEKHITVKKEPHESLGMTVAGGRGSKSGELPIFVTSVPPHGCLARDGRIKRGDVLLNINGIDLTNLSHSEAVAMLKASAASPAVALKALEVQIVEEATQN

T12: SHANK1, Q9Y566
T12 sequence (Q9Y566 658-767, limits assumed, looked up): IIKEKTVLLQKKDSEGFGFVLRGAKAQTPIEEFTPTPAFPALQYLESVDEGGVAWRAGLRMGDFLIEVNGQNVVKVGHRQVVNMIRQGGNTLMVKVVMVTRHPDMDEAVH

T13: SNTB1, Q13884
T13 sequence (Q13884 107-205, limits assumed, looked up): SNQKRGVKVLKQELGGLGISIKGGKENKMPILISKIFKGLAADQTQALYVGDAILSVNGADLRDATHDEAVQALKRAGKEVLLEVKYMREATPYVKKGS


target: Inadl_1, Q8NI35; assay: holdup assay; parameters: key: below the threshold = too weak to quantify, mostly under pKd 3.1 to 4; settings: plain residues with an end cap or a label only (N-terminal biotin on a linker: ado-ado)
Sequence (Q8NI35 113-229): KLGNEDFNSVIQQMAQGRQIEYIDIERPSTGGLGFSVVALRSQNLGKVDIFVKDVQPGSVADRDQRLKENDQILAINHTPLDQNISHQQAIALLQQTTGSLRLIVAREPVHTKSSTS

| Binder | pKd |
| --- | --- |
| LDKESFLTWL [YAP1, P46937] | 4.54 |

target: T1, MPP7, Q5T2T1; assay: holdup assay; parameters: key: below the threshold = too weak to quantify, mostly under pKd 3.1 to 4; settings: plain residues with an end cap or a label only (N-terminal biotin on a linker: ado-ado)

| Binder | pKd |
| --- | --- |
| LDKESFLTWL [YAP1, P46937] | 3.72 |

target: MAST1, Q9Y2H9; assay: holdup assay; parameters: key: below the threshold = too weak to quantify, mostly under pKd 3.1 to 4; settings: plain residues with an end cap or a label only (N-terminal biotin on a linker: ado-ado)
Sequence (Q9Y2H9 962-1065): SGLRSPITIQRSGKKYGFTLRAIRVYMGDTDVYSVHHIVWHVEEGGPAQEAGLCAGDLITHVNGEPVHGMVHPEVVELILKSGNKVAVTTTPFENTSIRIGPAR

| Binder | pKd |
| --- | --- |
| LDKESFLTWL [YAP1, P46937] | 4.28 |

target: T2, HTRA3, P83110; assay: holdup assay; parameters: key: below the threshold = too weak to quantify, mostly under pKd 3.1 to 4; settings: plain residues with an end cap or a label only (N-terminal biotin on a linker: ado-ado)

| Binder | pKd |
| --- | --- |
| LDKESFLTWL [YAP1, P46937] | 5.5 |

target: T3, MPDZ_10, O75970; assay: holdup assay; parameters: key: below the threshold = too weak to quantify, mostly under pKd 3.1 to 4; settings: plain residues with an end cap or a label only (N-terminal biotin on a linker: ado-ado)

| Binder | pKd |
| --- | --- |
| LDKESFLTWL [YAP1, P46937] | below the threshold |

target: T4, PDZD7_3, Q9H5P4; assay: holdup assay; parameters: key: below the threshold = too weak to quantify, mostly under pKd 3.1 to 4; settings: plain residues with an end cap or a label only (N-terminal biotin on a linker: ado-ado)

| Binder | pKd |
| --- | --- |
| LDKESFLTWL [YAP1, P46937] | 4.92 |

target: MAGI3_2, Q5TCQ9; assay: holdup assay; parameters: key: below the threshold = too weak to quantify, mostly under pKd 3.1 to 4; settings: plain residues with an end cap or a label only (N-terminal biotin on a linker: ado-ado)
Sequence (Q5TCQ9 398-503): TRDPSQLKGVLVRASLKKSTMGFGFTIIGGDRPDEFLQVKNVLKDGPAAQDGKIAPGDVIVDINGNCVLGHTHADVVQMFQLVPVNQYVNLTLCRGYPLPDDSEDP

| Binder | pKd |
| --- | --- |
| LDKESFLTWL [YAP1, P46937] | 4.75 |

target: T5, SYNJ2BP, P57105; assay: holdup assay; parameters: key: below the threshold = too weak to quantify, mostly under pKd 3.1 to 4; settings: plain residues with an end cap or a label only (N-terminal biotin on a linker: ado-ado)

| Binder | pKd |
| --- | --- |
| LDKESFLTWL [YAP1, P46937] | 4.47 |

target: T6, GRIP1_7, Q9Y3R0; assay: holdup assay; parameters: key: below the threshold = too weak to quantify, mostly under pKd 3.1 to 4; settings: plain residues with an end cap or a label only (N-terminal biotin on a linker: ado-ado)

| Binder | pKd |
| --- | --- |
| LDKESFLTWL [YAP1, P46937] | below the threshold |

target: GRID2IP_1, A4D2P6; assay: holdup assay; parameters: key: below the threshold = too weak to quantify, mostly under pKd 3.1 to 4; settings: plain residues with an end cap or a label only (N-terminal biotin on a linker: ado-ado)
Sequence (A4D2P6 1-87): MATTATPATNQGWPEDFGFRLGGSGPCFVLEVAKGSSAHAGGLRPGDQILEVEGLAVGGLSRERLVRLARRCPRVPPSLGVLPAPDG

| Binder | pKd |
| --- | --- |
| LDKESFLTWL [YAP1, P46937] | below the threshold |

target: T7, APBA1_1, Q02410; assay: holdup assay; parameters: key: below the threshold = too weak to quantify, mostly under pKd 3.1 to 4; settings: plain residues with an end cap or a label only (N-terminal biotin on a linker: ado-ado)

| Binder | pKd |
| --- | --- |
| LDKESFLTWL [YAP1, P46937] | 4.06 |

target: T8, TX1BP3, O14907; assay: holdup assay; parameters: key: below the threshold = too weak to quantify, mostly under pKd 3.1 to 4; settings: plain residues with an end cap or a label only (N-terminal biotin on a linker: ado-ado)

| Binder | pKd |
| --- | --- |
| LDKESFLTWL [YAP1, P46937] | 4.26 |

target: T9, APBA1_2, Q02410; assay: holdup assay; parameters: key: below the threshold = too weak to quantify, mostly under pKd 3.1 to 4; settings: plain residues with an end cap or a label only (N-terminal biotin on a linker: ado-ado)

| Binder | pKd |
| --- | --- |
| LDKESFLTWL [YAP1, P46937] | 4.88 |

target: NHERF4_4, Q86UT5; assay: holdup assay; parameters: key: below the threshold = too weak to quantify, mostly under pKd 3.1 to 4; settings: plain residues with an end cap or a label only (N-terminal biotin on a linker: ado-ado)
Sequence (Q86UT5 464-550): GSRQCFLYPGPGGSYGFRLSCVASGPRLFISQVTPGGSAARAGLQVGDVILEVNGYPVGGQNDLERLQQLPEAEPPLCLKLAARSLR

| Binder | pKd |
| --- | --- |
| LDKESFLTWL [YAP1, P46937] | 4.16 |

target: T10, GRIP1_3, Q9Y3R0; assay: holdup assay; parameters: key: below the threshold = too weak to quantify, mostly under pKd 3.1 to 4; settings: plain residues with an end cap or a label only (N-terminal biotin on a linker: ado-ado)

| Binder | pKd |
| --- | --- |
| LDKESFLTWL [YAP1, P46937] | below the threshold |

target: DLG2_2, Q15700; assay: holdup assay; parameters: key: below the threshold = too weak to quantify, mostly under pKd 3.1 to 4; settings: plain residues with an end cap or a label only (N-terminal biotin on a linker: ado-ado)
Sequence (Q15700 189-283): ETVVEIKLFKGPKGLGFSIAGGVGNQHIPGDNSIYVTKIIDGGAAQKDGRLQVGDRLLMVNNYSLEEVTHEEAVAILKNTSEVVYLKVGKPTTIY

| Binder | pKd |
| --- | --- |
| LDKESFLTWL [YAP1, P46937] | below the threshold |

target: T11, LNX2_3, Q8N448; assay: holdup assay; parameters: key: below the threshold = too weak to quantify, mostly under pKd 3.1 to 4; settings: plain residues with an end cap or a label only (N-terminal biotin on a linker: ado-ado)

| Binder | pKd |
| --- | --- |
| LDKESFLTWL [YAP1, P46937] | below the threshold |

target: T12, SHANK1, Q9Y566; assay: holdup assay; parameters: key: below the threshold = too weak to quantify, mostly under pKd 3.1 to 4; settings: plain residues with an end cap or a label only (N-terminal biotin on a linker: ado-ado)

| Binder | pKd |
| --- | --- |
| LDKESFLTWL [YAP1, P46937] | 5.4 |

target: PARD3_3, Q8TEW0; assay: holdup assay; parameters: key: below the threshold = too weak to quantify, mostly under pKd 3.1 to 4; settings: plain residues with an end cap or a label only (N-terminal biotin on a linker: ado-ado)
Sequence (Q8TEW0 582-685): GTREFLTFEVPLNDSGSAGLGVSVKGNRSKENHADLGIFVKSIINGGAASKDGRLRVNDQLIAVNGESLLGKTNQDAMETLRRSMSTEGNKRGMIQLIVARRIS

| Binder | pKd |
| --- | --- |
| LDKESFLTWL [YAP1, P46937] | 4.98 |

target: GRID2IP_2, A4D2P6; assay: holdup assay; parameters: key: below the threshold = too weak to quantify, mostly under pKd 3.1 to 4; settings: plain residues with an end cap or a label only (N-terminal biotin on a linker: ado-ado)
Sequence (A4D2P6 272-370): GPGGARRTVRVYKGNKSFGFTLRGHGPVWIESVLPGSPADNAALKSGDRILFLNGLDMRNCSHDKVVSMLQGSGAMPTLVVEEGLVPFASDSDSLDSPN

| Binder | pKd |
| --- | --- |
| LDKESFLTWL [YAP1, P46937] | 4.52 |

target: GIPC2, Q8TF65; assay: holdup assay; parameters: key: below the threshold = too weak to quantify, mostly under pKd 3.1 to 4; settings: plain residues with an end cap or a label only (N-terminal biotin on a linker: ado-ado)
Sequence (Q8TF65 112-203): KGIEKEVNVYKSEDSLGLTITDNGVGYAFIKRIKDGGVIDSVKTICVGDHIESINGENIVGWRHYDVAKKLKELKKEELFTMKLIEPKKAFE

| Binder | pKd |
| --- | --- |
| LDKESFLTWL [YAP1, P46937] | below the threshold |

target: FRMPD2_1, Q68DX3; assay: holdup assay; parameters: key: below the threshold = too weak to quantify, mostly under pKd 3.1 to 4; settings: plain residues with an end cap or a label only (N-terminal biotin on a linker: ado-ado)
Sequence (Q68DX3 770-861): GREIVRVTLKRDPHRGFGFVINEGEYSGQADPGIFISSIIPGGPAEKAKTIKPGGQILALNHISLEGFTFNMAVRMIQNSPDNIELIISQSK

| Binder | pKd |
| --- | --- |
| LDKESFLTWL [YAP1, P46937] | below the threshold |

target: T13, SNTB1, Q13884; assay: holdup assay; parameters: key: below the threshold = too weak to quantify, mostly under pKd 3.1 to 4; settings: plain residues with an end cap or a label only (N-terminal biotin on a linker: ado-ado)

| Binder | pKd |
| --- | --- |
| LDKESFLTWL [YAP1, P46937] | below the threshold |
